Reference: IntAct's records for PubMed 24018422

B1: Sentrin-specific protease 7 (Homo sapiens), Q9BQF6 (parent)
chain: MDKRKLGRRPSSSEIITEGKRKKSSSDLSEIRKMLNAKPEDVHVQSPLSKFRSSERWTLPLQWERSLRNKVISLDHKNKKHIRGCPVTSKSSPERQLKVMLTNVLWTDLGRKFRKTLPRNDANLCDANKVQSDSLPSTSVDSLETCQKLEPLRQSLNLSERIPRVILTNVLGTELGRKYIRTPPVTEGSLSDTDNLQSEQLSSSSDGSLESYQNLNPHKSCYLSERGSQRSKTVDDNSAKQTAHNKEKRRKDDGISLLISDTQPEDLNSGSRGCDHLEQESRNKDVKYSDSKVELTLISRKTKRRLRNNLPDSQYCTSLDKSTEQTKKQEDDSTISTEFEKPSENYHQDPKLPEEITTKPTKSDFTKLSSLNSQELTLSNATKSASAGSTTETVENSNSIDIVGISSLVEKDENELNTIEKPILRGHNEGNQSLISAEPIVVSSDEEGPVEHKSSEILKLQSKQDRETTNENESTSESALLELPLITCESVQMSSELCPYNPVMENISSIMPSNEMDLQLDFIFTSVYIGKIKGASKGCVTITKKYIKIPFQVSLNEISLLVDTTHLKRFGLWKSKDDNHSKRSHAILFFWVSSDYLQEIQTQLEHSVLSQQSKSSEFIFLELHNPVSQREELKLKDIMTEISIISGELELSYPLSWVQAFPLFQNLSSKESSFIHYYCVSTCSFPAGVAVAEEMKLKSVSQPSNTDAAKPTYTFLQKQSSGCYSLSITSNPDEEWREVRHTGLVQKLIVYPPPPTKGGLGVTNEDLECLEEGEFLNDVIIDFYLKYLILEKASDELVERSHIFSSFFYKCLTRKENNLTEDNPNLSMAQRRHKRVRTWTRHINIFNKDYIFVPVNESSHWYLAVICFPWLEEAVYEDFPQTVSQQSQAQQSQNDNKTIDNDLRTTSTLSLSAEDSQSTESNMSVPKKMCKRPCILILDSLKAASVQNTVQNLREYLEVEWEVKLKTHRQFSKTNMVDLCPKVPKQDNSSDCGVYLLQYVESFFKDPIVNFELPIHLEKWFPRHVIKTKREDIRELILKLHLQQQKGSSS

Variants of: B1
Settings: with cbx5_human CBX5, P45973
cbx5_human CBX5, P45973, sequence (P45973 whole entry): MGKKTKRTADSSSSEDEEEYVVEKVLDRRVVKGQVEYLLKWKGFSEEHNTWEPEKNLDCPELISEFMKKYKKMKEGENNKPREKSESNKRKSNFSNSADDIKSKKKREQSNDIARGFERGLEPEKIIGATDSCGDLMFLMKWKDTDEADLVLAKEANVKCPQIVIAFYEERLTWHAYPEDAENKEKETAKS

effect of a mutation on the interaction | Variant
disrupting interaction | L149A;L152A;L156A;L158A;P163A;V165A

Variants of: B1
Settings: with tif1b_human TRIM28, Q13263
tif1b_human TRIM28, Q13263, sequence (Q13263 whole entry): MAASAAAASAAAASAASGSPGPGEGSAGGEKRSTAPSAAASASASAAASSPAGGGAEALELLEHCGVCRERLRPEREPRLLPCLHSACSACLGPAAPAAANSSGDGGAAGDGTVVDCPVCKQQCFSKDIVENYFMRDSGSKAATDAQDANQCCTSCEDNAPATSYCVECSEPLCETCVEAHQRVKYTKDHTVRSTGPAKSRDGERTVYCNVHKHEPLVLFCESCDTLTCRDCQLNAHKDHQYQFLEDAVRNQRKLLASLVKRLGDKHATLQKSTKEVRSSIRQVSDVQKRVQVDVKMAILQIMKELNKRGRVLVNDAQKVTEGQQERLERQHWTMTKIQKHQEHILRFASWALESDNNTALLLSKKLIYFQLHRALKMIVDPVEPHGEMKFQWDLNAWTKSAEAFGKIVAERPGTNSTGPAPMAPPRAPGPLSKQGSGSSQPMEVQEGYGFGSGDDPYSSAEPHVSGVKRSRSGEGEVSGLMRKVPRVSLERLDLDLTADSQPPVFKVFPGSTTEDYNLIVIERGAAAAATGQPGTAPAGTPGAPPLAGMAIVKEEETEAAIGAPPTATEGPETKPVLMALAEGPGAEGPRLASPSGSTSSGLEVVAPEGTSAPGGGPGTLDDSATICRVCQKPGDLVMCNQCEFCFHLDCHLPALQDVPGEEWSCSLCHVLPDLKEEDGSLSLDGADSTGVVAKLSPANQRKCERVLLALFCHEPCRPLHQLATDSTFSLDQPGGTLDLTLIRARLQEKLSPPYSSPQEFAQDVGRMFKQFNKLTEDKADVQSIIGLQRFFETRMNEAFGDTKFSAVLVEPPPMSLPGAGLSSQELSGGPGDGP

effect of a mutation on the interaction | Variant
disrupting interaction | L149A;L152A;L156A;L158A;P163A;V165A

Variants of: B1
Settings: with tif1b_human TRIM28, Q13263
Remark: another data set of the same source

effect of a mutation on the interaction | Variant
increasing interaction | C992A
